Data as given in IntAct's records for PubMed 32296183.

B1: Succinate--CoA ligase [ADP-forming] subunit beta, mitochondrial (Homo sapiens), Q9P2R7 (parent)
chain: MAASMFYGRLVAVATLRNHRPRTAQRAAAQVLGSSGLFNNHGLQVQQQQQRNLSLHEYMSMELLQEAGVSVPKGYVAKSPDEAYAIAKKLGSKDVVIKAQVLAGGRGKGTFESGLKGGVKIVFSPEEAKAVSSQMIGKKLFTKQTGEKGRICNQVLVCERKYPRREYYFAITMERSFQGPVLIGSSHGGVNIEDVAAESPEAIIKEPIDIEEGIKKEQALQLAQKMGFPPNIVESAAENMVKLYSLFLKYDATMIEINPMVEDSDGAVLCMDAKINFDSNSAYRQKKIFDLQDWTQEDERDKDAAKANLNYIGLDGNIGCLVNGAGLAMATMDIIKLHGGTPANFLDVGGGATVHQVTEAFKLITSDKKVLAILVNIFGGIMRCDVIAQGIVMAVKDLEIKIPVVVRLQGTRVDDAKALIADSGLKILACDDLDEAARMVVKLSEIVTLAKQAHVDVKFQLPI
B2: Succinate--CoA ligase [ADP-forming] subunit beta, mitochondrial (Homo sapiens), Q9P2R7 (parent)
chain: B1 chain
partner: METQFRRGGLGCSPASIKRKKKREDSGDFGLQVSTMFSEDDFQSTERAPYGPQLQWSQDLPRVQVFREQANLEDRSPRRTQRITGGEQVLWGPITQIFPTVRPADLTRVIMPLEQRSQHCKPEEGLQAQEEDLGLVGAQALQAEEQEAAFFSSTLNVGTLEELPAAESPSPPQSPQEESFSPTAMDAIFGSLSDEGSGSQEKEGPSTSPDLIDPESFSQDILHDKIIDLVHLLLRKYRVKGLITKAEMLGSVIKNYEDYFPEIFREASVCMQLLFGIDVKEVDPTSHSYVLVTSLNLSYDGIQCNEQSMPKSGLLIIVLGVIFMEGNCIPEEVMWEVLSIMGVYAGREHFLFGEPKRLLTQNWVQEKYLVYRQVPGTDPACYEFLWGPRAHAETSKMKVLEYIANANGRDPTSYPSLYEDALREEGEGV
B3: Catenin alpha-3 (Homo sapiens), Q9UI47-2 (parent)
chain: MSAETPITLNIDPQDLQVQTFTVEKLLEPLIIQVTTLVNCPQNPSSRKKGRSKRASVLLASVEEATWNLLDKGEKIAQEATVLKDELTASLEEVRKESEALKVSAERFTDDPCFLPKREAVVQAARALLAAVTRLLILADMIDVMCLLQHVSAFQRTFESLKNVANKSDLQKTYQKLGKELENLDYLAFKRQQDLKSPNQRDEIAGARASLKENSPLLHSICSACLEHSDVASLKASKDTVCEEIQNALNVISNASQGIQNMTTPPEPQAATLGSALDELENLIVLNPLTVTEEEIRPSLEKRLEAIISGAALLADSSCTRDLHRERIIAECNAIRQALQDLLSEYMNNAGKKERSNTLNIALDNMCKKTRDLRRQLRKAIIDHVSDSFLDTTVPLLVLIEAAKNGREKEIKEYAAIFHEHTSRLVEVANLACSMSTNEDGIKIVKIAANHLETLCPQIINAALALAARPKSQAVKNTMEMYKRTWENHIHVLTEAVDDITSIDDFLAVSGMFLFF
partner: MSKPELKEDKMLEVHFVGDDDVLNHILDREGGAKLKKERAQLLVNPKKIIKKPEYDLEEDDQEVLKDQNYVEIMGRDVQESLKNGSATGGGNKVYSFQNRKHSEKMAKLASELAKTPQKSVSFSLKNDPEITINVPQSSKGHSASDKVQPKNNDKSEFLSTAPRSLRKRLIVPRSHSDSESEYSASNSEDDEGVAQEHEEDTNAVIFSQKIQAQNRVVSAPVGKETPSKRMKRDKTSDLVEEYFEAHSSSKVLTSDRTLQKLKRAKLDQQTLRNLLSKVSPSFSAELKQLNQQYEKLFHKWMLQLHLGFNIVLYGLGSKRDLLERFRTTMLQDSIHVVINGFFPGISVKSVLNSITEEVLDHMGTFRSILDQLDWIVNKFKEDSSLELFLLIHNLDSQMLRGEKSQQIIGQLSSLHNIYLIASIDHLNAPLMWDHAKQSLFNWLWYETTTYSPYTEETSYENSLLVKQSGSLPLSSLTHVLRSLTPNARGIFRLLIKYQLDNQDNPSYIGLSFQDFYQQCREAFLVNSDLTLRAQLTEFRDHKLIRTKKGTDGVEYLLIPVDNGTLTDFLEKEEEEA
B4: Catenin alpha-3 (Homo sapiens), Q9UI47-2 (parent)
chain: B3 chain
partner: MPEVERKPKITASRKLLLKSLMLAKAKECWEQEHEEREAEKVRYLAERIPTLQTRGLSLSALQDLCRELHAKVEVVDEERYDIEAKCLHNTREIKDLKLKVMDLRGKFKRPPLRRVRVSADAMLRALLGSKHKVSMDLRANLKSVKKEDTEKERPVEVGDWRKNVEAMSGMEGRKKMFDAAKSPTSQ

Variants of: B1
Conditions: with sc23a_human SEC23A

Row | Variant | effect of a mutation on the interaction
1 | MAASMFYGRLVAVATLRNHRPRTAQRAAAQVLGSSGLFNNHGLQVQQQQQRNLSLHEYMSMELLQEAGVSVPKGYVAKSPDEAYAIAKKLGSKDVVIKAQVLAGGRGKGTFESGLKGRVKIVFSPEEAKAVSSQMIGKKLFTKQTGEKGRICNQVLVCERKYPRREYYFAITMERSFQGPVLIGSSHGGVNIEDVAAESPEAIIKEPIDIEEGIKKEQALQLAQKMGFPPNIVESAAENMVKLYSLFLKYDATMIEINPMVEDSDGAVLCMDAKINFDSNSAYRQKKIFDLQDWTQEDERDKDAAKANLNYIGLDGNIGCLVNGAGLAMATMDIIKLHGGTPANFLDVGGGATVHQVTEAFKLITSDKKVLAILVNIFGGIMRCDVIAQGIVMAVKDLEIKIPVVVRLQGTRVDDAKALIADSGLKILACDDLDEAARMVVKLSEIVTLAKQAHVDVKFQLPI [G118R] | disrupting interaction strength

Variants of: B1
Conditions: with mal2_human MAL2, Q969L2
Chain of mal2_human MAL2, Q969L2 (Q969L2 whole entry): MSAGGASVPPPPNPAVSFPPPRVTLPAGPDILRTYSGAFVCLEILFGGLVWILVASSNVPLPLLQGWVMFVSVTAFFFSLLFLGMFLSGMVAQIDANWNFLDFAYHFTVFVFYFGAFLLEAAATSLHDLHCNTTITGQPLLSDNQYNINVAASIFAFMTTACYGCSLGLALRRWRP

Row | Variant | effect of a mutation on the interaction
2 | MAASMFYGRLVAVATLRNHRPRTAQRAAAQVLGSSGLFNNHGLQVQQQQQRNLSLHEYMSMELLQEAGVSVPKGYVAKSPDEAYAIAKKLGSKDVVIKAQVLAGGRGKGTFESGLKGRVKIVFSPEEAKAVSSQMIGKKLFTKQTGEKGRICNQVLVCERKYPRREYYFAITMERSFQGPVLIGSSHGGVNIEDVAAESPEAIIKEPIDIEEGIKKEQALQLAQKMGFPPNIVESAAENMVKLYSLFLKYDATMIEINPMVEDSDGAVLCMDAKINFDSNSAYRQKKIFDLQDWTQEDERDKDAAKANLNYIGLDGNIGCLVNGAGLAMATMDIIKLHGGTPANFLDVGGGATVHQVTEAFKLITSDKKVLAILVNIFGGIMRCDVIAQGIVMAVKDLEIKIPVVVRLQGTRVDDAKALIADSGLKILACDDLDEAARMVVKLSEIVTLAKQAHVDVKFQLPI [G118R] | disrupting interaction strength

Variants of: B1
Conditions: with ar6p1_human ARL6IP1, Q15041
Chain of ar6p1_human ARL6IP1, Q15041 (Q15041 whole entry): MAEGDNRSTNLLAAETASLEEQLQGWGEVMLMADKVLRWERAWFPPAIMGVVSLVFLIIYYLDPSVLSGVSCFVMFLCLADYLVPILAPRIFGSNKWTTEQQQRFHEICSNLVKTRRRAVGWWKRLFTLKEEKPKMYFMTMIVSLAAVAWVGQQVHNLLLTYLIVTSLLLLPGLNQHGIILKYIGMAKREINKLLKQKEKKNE

Row | Variant | effect of a mutation on the interaction
3 | MAASMFYGRLVAVATLRNHRPRTAQRAAAQVLGSSGLFNNHGLQVQQQQQRNLSLHEYMSMELLQEAGVSVPKGYVAKSPDEAYAIAKKLGSKDVVIKAQVLAGGRGKGTFESGLKGRVKIVFSPEEAKAVSSQMIGKKLFTKQTGEKGRICNQVLVCERKYPRREYYFAITMERSFQGPVLIGSSHGGVNIEDVAAESPEAIIKEPIDIEEGIKKEQALQLAQKMGFPPNIVESAAENMVKLYSLFLKYDATMIEINPMVEDSDGAVLCMDAKINFDSNSAYRQKKIFDLQDWTQEDERDKDAAKANLNYIGLDGNIGCLVNGAGLAMATMDIIKLHGGTPANFLDVGGGATVHQVTEAFKLITSDKKVLAILVNIFGGIMRCDVIAQGIVMAVKDLEIKIPVVVRLQGTRVDDAKALIADSGLKILACDDLDEAARMVVKLSEIVTLAKQAHVDVKFQLPI [G118R] | disrupting interaction strength

Variants of: B2
Conditions: with magab_human MAGEA11, P43364

Row | Variant | effect of a mutation on the interaction
4 | MAASMFYGRLVAVATLRNHRPRTAQRAAAQVLGSSGLFNNHGLQVQQQQQRNLSLHEYMSMELLQEAGVSVPKGYVAKSPDEAYAIAKKLGSKDVVIKAQVLAGGRGKGTFESGLKGRVKIVFSPEEAKAVSSQMIGKKLFTKQTGEKGRICNQVLVCERKYPRREYYFAITMERSFQGPVLIGSSHGGVNIEDVAAESPEAIIKEPIDIEEGIKKEQALQLAQKMGFPPNIVESAAENMVKLYSLFLKYDATMIEINPMVEDSDGAVLCMDAKINFDSNSAYRQKKIFDLQDWTQEDERDKDAAKANLNYIGLDGNIGCLVNGAGLAMATMDIIKLHGGTPANFLDVGGGATVHQVTEAFKLITSDKKVLAILVNIFGGIMRCDVIAQGIVMAVKDLEIKIPVVVRLQGTRVDDAKALIADSGLKILACDDLDEAARMVVKLSEIVTLAKQAHVDVKFQLPI [G118R] | disrupting interaction strength
5 | MAASMFYGRLVAVATLRNHRPRTAQRAAAQVLGSSGLFNNHGLQVQQQQQRNLSLHEYMSMELLQEAGVSVPKGYVAKSPDEAYAIAKKLGSKDVVIKAQVLAGGRGKGTFESGLKGGVKIVFSPEEAKAVSSQMIGKKLFTKQTGEKGRICNQVLVCERKYPRREYYFAITMERSFQGPVLIGSSHGGVNIEDVAAESPEAIIKEPIDIEEGIKKEQALQLAQKMGFPPNIVESAAENMVKLYSLFLKYNATMIEINPMVEDSDGAVLCMDAKINFDSNSAYRQKKIFDLQDWTQEDERDKDAAKANLNYIGLDGNIGCLVNGAGLAMATMDIIKLHGGTPANFLDVGGGATVHQVTEAFKLITSDKKVLAILVNIFGGIMRCDVIAQGIVMAVKDLEIKIPVVVRLQGTRVDDAKALIADSGLKILACDDLDEAARMVVKLSEIVTLAKQAHVDVKFQLPI [D251N] | disrupting interaction strength

Variants of: B3
Conditions: with orc2_human ORC2, Q13416

Row | Variant | effect of a mutation on the interaction
6 | MSAETPITLNIDPQDLQVQTFTVEKLLEPLIIQVTTLVNCPQNPSSRKKGRSKRASVLLASVEEATWNLLDKGEKIAQEATVLKDELTASLEEDRKESEALKVSAERFTDDPCFLPKREAVVQAARALLAAVTRLLILADMIDVMCLLQHVSAFQRTFESLKNVANKSDLQKTYQKLGKELENLDYLAFKRQQDLKSPNQRDEIAGARASLKENSPLLHSICSACLEHSDVASLKASKDTVCEEIQNALNVISNASQGIQNMTTPPEPQAATLGSALDELENLIVLNPLTVTEEEIRPSLEKRLEAIISGAALLADSSCTRDLHRERIIAECNAIRQALQDLLSEYMNNAGKKERSNTLNIALDNMCKKTRDLRRQLRKAIIDHVSDSFLDTTVPLLVLIEAAKNGREKEIKEYAAIFHEHTSRLVEVANLACSMSTNEDGIKIVKIAANHLETLCPQIINAALALAARPKSQAVKNTMEMYKRTWENHIHVLTEAVDDITSIDDFLAVSGMFLFF [V94D] | disrupting interaction strength

Variants of: B4
Conditions: with tnni1_human TNNI1, P19237

Row | Variant | effect of a mutation on the interaction
7 | MSAETPITLNIDPQDLQVQTFTVEKLLEPLIIQVTTLVNCPQNPSSRKKGRSKRASVLLASVEEATWNLLDKGEKIAQEATVLKDELTASLEEDRKESEALKVSAERFTDDPCFLPKREAVVQAARALLAAVTRLLILADMIDVMCLLQHVSAFQRTFESLKNVANKSDLQKTYQKLGKELENLDYLAFKRQQDLKSPNQRDEIAGARASLKENSPLLHSICSACLEHSDVASLKASKDTVCEEIQNALNVISNASQGIQNMTTPPEPQAATLGSALDELENLIVLNPLTVTEEEIRPSLEKRLEAIISGAALLADSSCTRDLHRERIIAECNAIRQALQDLLSEYMNNAGKKERSNTLNIALDNMCKKTRDLRRQLRKAIIDHVSDSFLDTTVPLLVLIEAAKNGREKEIKEYAAIFHEHTSRLVEVANLACSMSTNEDGIKIVKIAANHLETLCPQIINAALALAARPKSQAVKNTMEMYKRTWENHIHVLTEAVDDITSIDDFLAVSGMFLFF [V94D] | with no effect
